{"source": "patent US20080292662A1", "target": "Rhodanese (Sigma), denatured in 8 M urea (UniProt P00586)", "sequence (P00586 2-297 limits assumed)": "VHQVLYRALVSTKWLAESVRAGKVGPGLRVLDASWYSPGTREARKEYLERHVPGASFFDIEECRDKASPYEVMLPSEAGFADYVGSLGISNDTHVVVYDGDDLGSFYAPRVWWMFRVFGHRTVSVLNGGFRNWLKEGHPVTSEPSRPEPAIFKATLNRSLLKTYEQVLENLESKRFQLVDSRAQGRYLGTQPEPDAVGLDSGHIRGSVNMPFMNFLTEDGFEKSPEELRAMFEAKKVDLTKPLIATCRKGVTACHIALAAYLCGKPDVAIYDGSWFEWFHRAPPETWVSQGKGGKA", "experiment": "cell-based or functional assay", "data": [{"substance": "Histidine-tagged ClpL of Streptococcus pneumoniae (from pKHY004, expressed in E. coli)", "values": [{"measurement": "Rhodanese activity (%) after refolding with ClpL 90 Nm", "result": 9, "unit": "%"}]}]}
